Experimental data: patent publication US20150239933A1
“And” between values parts separate entries of the source, which are not always exact repeats. Equal entries are not always repeated.

What was measured:
[1] = target: assembled microtubules (containing ~25% of TUBB3) (porcine) (UniProt F1S6M7); experiment: SPR Biacore T200, assembled MTs amine-coupled to CM5, gp120 3.13-100 nM as analyte, 1:1 model; one of two experiments
[2] = target: assembled microtubules (containing ~25% of TUBB3) (porcine) (UniProt F1S6M7); experiment: SPR Biacore T200, assembled MTs immobilised, 1:1 model; mean of two experiments
[3] = target: Porcine tubulin dimer (porcine); experiment: SPR Biacore T200, tubulin dimer amine-coupled to CM5, gp120 3.13-100 nM as analyte, 1:1 model; one of two experiments
[4] = target: Human recombinant TUBB3 (human) (UniProt Q13509); experiment: SPR Biacore T200, 60 sec injection of 100 nM over immobilised tubulin β-3, reference-subtracted
[5] = target: Porcine tubulin dimer (porcine); experiment: SPR Biacore T200, tubulin dimer immobilised, 1:1 model; mean of two experiments
[6] = target: assembled microtubules (containing ~25% of TUBB3) (porcine) (UniProt F1S6M7); experiment: SPR Biacore T200, 60 sec injection of 100 nM over immobilised microtubules, reference-subtracted
[7] = target: Porcine tubulin dimer (porcine); experiment: SPR Biacore T200, 60 sec injection of 100 nM over immobilised tubulin dimer, reference-subtracted
[8] = target: Human recombinant TUBB3 (human) (UniProt Q13509); experiment: SPR Biacore T200, TUBB3 amine-coupled to CM5, gp120 3.13-100 nM as analyte, 1:1 model; one of two experiments
[9] = target: Human recombinant TUBB3 (human) (UniProt Q13509); experiment: SPR Biacore T200, TUBB3 immobilised, 1:1 model; mean of two experiments

Chain of Human recombinant TUBB3 (human) (Q13509 whole entry): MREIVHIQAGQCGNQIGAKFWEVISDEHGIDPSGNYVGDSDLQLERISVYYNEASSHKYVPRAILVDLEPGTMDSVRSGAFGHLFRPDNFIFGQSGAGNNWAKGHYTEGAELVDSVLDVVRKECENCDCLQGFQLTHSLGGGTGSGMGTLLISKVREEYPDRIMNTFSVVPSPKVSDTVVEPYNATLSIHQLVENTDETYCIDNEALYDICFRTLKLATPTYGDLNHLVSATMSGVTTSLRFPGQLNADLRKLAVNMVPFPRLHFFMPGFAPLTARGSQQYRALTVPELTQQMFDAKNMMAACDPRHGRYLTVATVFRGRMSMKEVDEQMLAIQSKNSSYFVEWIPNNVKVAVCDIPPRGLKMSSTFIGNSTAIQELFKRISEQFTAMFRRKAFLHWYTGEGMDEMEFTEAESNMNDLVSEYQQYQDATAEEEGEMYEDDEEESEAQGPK

gp120IIIB (from UniProt P04578 33-511)
Kd [1]: 1.16 nM and 8.46 nM
Kd [2]: 10 nM
Kd [3]: 1.69 nM and 7.68 nM
response (2-1) RU [4]: 35 RU and 44 RU
Kd [5]: 12.3 nM
response (4-1) RU [6]: 15 RU and 23.2 RU and 19 RU
response (3-1) RU [7]: 14 RU and 18.6 RU and 21 RU

gp120ADA
Kd [1]: 5.62 nM and 1.83 nM
Kd [8]: 5.48 nM and 15.2 nM
Kd [2]: 12 nM
Kd [3]: 5.4 nM and 1.71 nM
Kd [5]: 11.2 nM
Kd [9]: 10.3 nM
